Tests used:
[1] = molecular target: T1, His-tagged ILT4 protein extracellular domain: ILT4-His (human, UniProt Q8N423 22-460); assay: SPR (Biacore), antibody captured on Protein A chip, ILT4-His as analyte, 1:1 model
T1 construct: Expressed in 293 cells; also called human ILT4-His protein

[2] = molecular target: T1, His-tagged ILT4 protein extracellular …; assay: screening of chimeric antibodies (ILT4 protein binding, cell binding, ILT4/HLA-G blocking)

T1 sequence (Q8N423 other isoform, or with tags, fused parts or gaps limits assumed): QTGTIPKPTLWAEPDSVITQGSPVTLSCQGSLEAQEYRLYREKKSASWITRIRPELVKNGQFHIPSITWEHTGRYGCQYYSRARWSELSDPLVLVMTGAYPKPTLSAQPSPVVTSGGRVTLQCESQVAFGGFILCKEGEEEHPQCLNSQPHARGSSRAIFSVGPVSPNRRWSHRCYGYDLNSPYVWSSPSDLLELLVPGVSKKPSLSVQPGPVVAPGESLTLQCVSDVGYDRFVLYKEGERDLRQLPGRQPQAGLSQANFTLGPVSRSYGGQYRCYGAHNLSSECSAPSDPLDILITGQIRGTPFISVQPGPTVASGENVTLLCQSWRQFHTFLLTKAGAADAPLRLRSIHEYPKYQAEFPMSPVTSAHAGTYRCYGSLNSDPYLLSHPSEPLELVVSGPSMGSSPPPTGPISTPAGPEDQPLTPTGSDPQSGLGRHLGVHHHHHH

Kd [1] [nM]	koff [1] [s⁻¹]	kon [1] [M⁻¹ s⁻¹]	binding result [2]	Binder
3.98	0.0103	2.59e+06	–	humanized antibody huP1-D7 (antibody, human IgG4 S228P, kappa, F234A L235A, V domains shown, Full chains; also called P1-D7H1L1) VH: EVQLVQSGAEVKKPGASVKVSCKASGYTFTTYGMNWVRQAPGQGLEWMGWINTYSGVPTYAEDFKGRVTMTTDTSTSTAYMELRSLRSDDTAVYYCARRTDYDGYVMDSWGQGTTVTVSS VL: DIVMTQSPDSLAVSLGERATINCKSSQSLFYSGNQKNYLAWYQQKPGQSPKLLLYWASTRESGVPDRFSGSGSGTDFTLTISSLQAEDVAVYYCQQYFSYPPTFGGGTKVEIKR
–	–	–	binds	chimeric antibody ChP1-B4 (antibody, human IgG4 S228P, kappa, F234A L235A, V domains shown, Murine variable regions with hIgG4(LALA) and CL constant regions; also called M P1-B4) VH: QVQLKQSGPGLVQPSQSLSITCTVSSFSLTNYGVHWVRQSPGKGLEWLGVIWTGGSTDYNAAFISRLSIIRDNSKSQVFFKMNSLQADDTAMYYCAITTVVTAMDYWGQGTSVTVSS VL: DIVMTQSHKFMSTSVGDRVSITCKASQDVNIAVVWYQQKPGQSPKLLIYAASYRYTGVPDRFTGSGSGTDFTFTISSVQAEDLAVYYCQQHYSSPYTFGGGTKLEIKR
–	–	–	binds	chimeric antibody ChP2-C4 (antibody, human IgG4 S228P, kappa, F234A L235A, V domains shown, Murine variable regions with hIgG4(LALA) and CL constant regions; also called M P2-C4) VH: QVQLKESGPGLVAPSQSLSITCTVSGFSLSTYAIGWVRQPPGKGLEWLGVIWTGGGTSYNSALKSRLSISKDNSKSQVFLKMNSLQTDDTARYYCARGDYGPFAYWGQGTLVTVSS VL: DIVMTQSHKFMSTSLGDRVSISCKASQDVSIAVAWYQQKAGQSPKLLIYSASYRHTGVPDRFTGSGSGTDFTFTISSVQAEDLAVYYCQQHYSTPFTFGSGTKLEIKR
–	–	–	binds	chimeric antibody ChP1-F7 (antibody, human IgG4 S228P, kappa, F234A L235A, V domains shown, Murine variable regions with hIgG4(LALA) and CL constant regions; also called M P1-F7) VH: DVQLQESGPGLVKPSQSLSLTCSVTGYSITSGYYWNWIRQFPGNKLEWMGYISYDGNNYYNPSLKNRISVTRDTSKNQFFLKLNSVTSEDTATYYCAREDGSYSDYDGFAYWGQGTLVTVSS VL: DIQMTQSPASLSVSVGETVTITCRANENIYSNLAWYQQKQGKSPQLLVYAATNLADGVSSRFSGSGSGTQYSLRINSLQSEDFGSYYCQQFWGTPYTFGGGTKLEIKR
–	–	–	binds	chimeric antibody ChP2-E3 (antibody, human IgG4 S228P, kappa, F234A L235A, V domains shown, Murine variable regions with hIgG4(LALA) and CL constant regions; also called M P2-E3) VH: EVQLQQSGPELVKPGASVKISCKASGYTFTDYYMNWVKQSHGKSLEWIGDINPNNGGTSYNQKFKGKATLTVDKSSSTAYMELRSLTSEDSTVYYCARGGVTTVVATYWYFDVWGTGTTVTVSS VL: DIQMTQSPASLSVSVGETVTITCRASENIYSNLAWYQQKQGKSPQLLVYAATNVADGVPSRFSGGGSGTQYSLKINSLQSEDFGSYYCQQFWDTPFTFGSGTKLEIKR
–	–	–	binds	chimeric antibody ChP2-G9 (antibody, human IgG4 S228P, kappa, F234A L235A, V domains shown, Murine variable regions with hIgG4(LALA) and CL constant regions; also called M P2-G9) VH: DVQLQESGPGLVKPSQSLSLACSVTGSSITSGYYWNWIRQFPGNKLEWMGYLSYDGSNNYNPSLKNRISITRDTSKSQFFLKLNSVTPEDTATYYCAREGAHYSGTLSWFAYWGQGTLVTVSS VL: DIQMTQSPASLSVSVGETVTITCRASENIYSNLAWYQQKQGKSPQLLVYAATNLADGVPSRFSGSGSGTQYSLKINSLQSEDFGSYYCQHFWDTPYTFGGGTKLEIKR
–	–	–	binds	chimeric antibody ChP2-F10 (antibody, human IgG4 S228P, kappa, F234A L235A, V domains shown, Murine variable regions with hIgG4(LALA) and CL constant regions; also called M P2-F10) VH: DVQLQESGPGLVKPSQSLSLTCSVTGYSIASGYYWNWIRQFPGNKLEWMGYITYDGSNNYNPSLKNRISITRDTSKNQFFLKLNSVTTEDTATYYCAREYSYGSTLSWFAYWGQGTLVTVSS VL: DIQMTQSPASLSISVGETVTITCRASENIYSNLAWYQQKQGKSPQLLVYAATNLADGVPSRFSGSGSGTQYSLKINSLQSEDFGSYYCQHFWDTPYTFGGGTKLEIKR
0.158	7.2e-05	457000	–	humanized antibody huP1-G7 (antibody, human IgG4 S228P, kappa, F234A L235A, V domains shown, Full chains; also called P1-G7H1L1) VH: EVQLQESGPGLVKPSQTLSLTCTVSGYSITSGYYWNWIRQHPGKGLEWIGYISYDGGNNYNPFLKNRVTISRDTSKNQFSLKLSSVTAADTAVYYCAREGGSSWEYYGMDYWGQGTTVTVSS VL: DIQMTQSPSSLSASVGDRVTITCRASENIYRNLAWYQQKPGKAPKLLLYAATNLADGVPSRFSGSGSGTDFTLTISSLQPEDFATYYCQQFWGSPYTFGGGTKVEIKR

From EP4585618A1 (Jiangsu Hengrui Pharmaceuticals Co., Ltd., dated 2025)
